According to publication PMC11558545 (2024):
Several values for one entry are separate records, joined by “and”; a condition that tells them apart may be missing. Equal values may be shown once. Read-outs that look alike come from different tables or passages of the source. Square brackets hold non-standard residues; d marks the D form. Ends that are not written are not given here. pT = C[C@@H](OP(=O)(O)O)[C@H](N)C(=O)O; pS = N[C@@H](COP(=O)(O)O)C(=O)O

Tests used:
At14-3-3 λ^N233A = biological target: T1, At14-3-3 λ^N233A (Arabidopsis thaliana, UniProt P48349 1-248, N233A); assay: ITC
T1 sequence: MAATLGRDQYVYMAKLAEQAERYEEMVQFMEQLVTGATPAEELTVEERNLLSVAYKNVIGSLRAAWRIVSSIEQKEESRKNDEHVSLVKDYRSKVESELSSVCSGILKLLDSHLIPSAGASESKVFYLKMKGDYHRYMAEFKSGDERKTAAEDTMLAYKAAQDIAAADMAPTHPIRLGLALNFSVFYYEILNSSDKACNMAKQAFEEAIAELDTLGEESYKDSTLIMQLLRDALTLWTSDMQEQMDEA

[1] = biological target: T2, Arabidopsis 14-3-3 isoform kappa (At14-3-3-κ^1−248) (Arabidopsis thaliana, UniProt P48348 1-248); assay: ITC
T2 chain: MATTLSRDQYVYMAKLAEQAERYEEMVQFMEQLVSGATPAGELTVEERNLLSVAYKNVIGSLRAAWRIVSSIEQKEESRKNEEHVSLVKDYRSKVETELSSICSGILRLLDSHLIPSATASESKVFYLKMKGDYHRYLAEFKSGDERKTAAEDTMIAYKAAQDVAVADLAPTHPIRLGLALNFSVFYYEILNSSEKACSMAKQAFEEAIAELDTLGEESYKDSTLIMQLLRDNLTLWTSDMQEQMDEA

[2] = biological target: T3, Arabidopsis 14-3-3 omega, full length (At14-3-3-ω^1−259) (Arabidopsis thaliana, UniProt Q01525 1-259); assay: ITC
T3 chain: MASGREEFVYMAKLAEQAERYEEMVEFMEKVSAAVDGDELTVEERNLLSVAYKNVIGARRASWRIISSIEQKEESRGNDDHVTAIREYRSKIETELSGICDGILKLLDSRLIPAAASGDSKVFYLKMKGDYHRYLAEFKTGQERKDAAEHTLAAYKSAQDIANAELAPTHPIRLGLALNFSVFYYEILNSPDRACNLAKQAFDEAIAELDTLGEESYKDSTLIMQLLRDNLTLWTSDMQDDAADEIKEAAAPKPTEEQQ

[3] = biological target: T4, Arabidopsis 14-3-3 lambda (At14-3-3-λ^1−248) (Arabidopsis thaliana, UniProt P48349 1-248); assay: ITC
T4 chain: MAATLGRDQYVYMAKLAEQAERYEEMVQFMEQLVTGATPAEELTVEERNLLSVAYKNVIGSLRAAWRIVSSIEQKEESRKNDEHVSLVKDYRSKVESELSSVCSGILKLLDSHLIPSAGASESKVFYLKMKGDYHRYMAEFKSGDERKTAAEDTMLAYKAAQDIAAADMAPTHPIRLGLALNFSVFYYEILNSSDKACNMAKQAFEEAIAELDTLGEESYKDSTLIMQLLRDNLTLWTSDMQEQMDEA

[4] = biological target: T2, Arabidopsis 14-3-3 isoform kappa …; assay: ITC
[5] = biological target: T5, biotinylated 14-3-3 ω dimer (Arabidopsis thaliana, UniProt Q01525 1-259, biotin (EZ-Link NHS-Biotin, equimolar amounts of protein and biotin; sites not stated))
T5 chain: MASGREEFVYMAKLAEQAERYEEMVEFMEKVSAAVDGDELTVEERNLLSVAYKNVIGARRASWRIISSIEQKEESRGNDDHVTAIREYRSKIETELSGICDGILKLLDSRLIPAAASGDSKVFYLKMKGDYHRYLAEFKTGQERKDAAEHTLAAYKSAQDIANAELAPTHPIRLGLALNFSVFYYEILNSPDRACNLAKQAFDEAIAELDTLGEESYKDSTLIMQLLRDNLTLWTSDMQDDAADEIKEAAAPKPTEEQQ

B1: pBZR1^169−175 peptide (peptide)
peptide: RISN[pS]AP
Kd (At14-3-3 λ^N233A): 5 µM
Kd [1]: 0.57 µM
Kd [2]: 0.88 µM
Kd [3]: 0.81 µM
Kd [4]: 0.38 µM and 0.4 µM
koff [5]: 0.87 s⁻¹

B2: pBKI1^265−272 peptide (peptide)
peptide: RGELF[pS]AP
Kd (At14-3-3 λ^N233A): 3.7 µM
Kd [1]: 14.4 µM
Kd [2]: 6.4 µM
Kd [3]: 5.4 µM

B3: pBRI1^869−874 peptide (peptide)
peptide: RKL[pT]FA
Kd (At14-3-3 λ^N233A): 40 µM
Kd [4]: 16.7 µM and 17 µM

B4: pBZR1^169−184 peptide (peptide)
peptide: RISN[pS]CPV[pT]PPVSSPT
Kd [4]: 3.1 µM and 3 µM
